# In the supplement of paper PMC9112550, “Optimization of the antimicrobial peptide Bac7 by deep mutational scanning” (BMC Biology, 2022):
# System: Escherichia coli TOP10
# Assay: shrunken log2 fold change of peptide-encoding DNA abundance (4.5 h post-induction vs induction); higher = less antimicrobial activity (less host growth inhibition)
# Conditions: time post-induction: 4.5 h; library: site-saturation at positions 5, 18, 19, 20
# 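Also: peptides expressed intracellularly from a pBAD plasmid library in pooled LB shake-flask culture, induced with 0.3% L-arabinose, DNA abundance read by NGS, three biological replicates, DESeq2 with apeglm shrinkage.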
row,Sequence,shrunken log2 fold change
1,RRIRYRPPRLPRPRPRPWKQPRP,-0.0389
2,RRIRRRPPRLPRPRPRPNYWPRP,-0.19
3,RRIRMRPPRLPRPRPRPLIQPRP,0.00597
4,RRIRIRPPRLPRPRPRPLTRPRP,-0.265
5,RRIRMRPPRLPRPRPRPRIVPRP,0.16
6,RRIRQRPPRLPRPRPRPWMQPRP,-0.062
7,RRIRRRPPRLPRPRPRPHTIPRP,0.141
8,RRIRDRPPRLPRPRPRPEYQPRP,0.637
9,RRIRPRPPRLPRPRPRPMIPPRP,-0.124
10,RRIRGRPPRLPRPRPRPNWPPRP,0.306
11,RRIRRRPPRLPRPRPRPWHEPRP,0.041
12,RRIRDRPPRLPRPRPRPSEIPRP,-0.167
13,RRIRKRPPRLPRPRPRPYLNPRP,-0.362
14,RRIRQRPPRLPRPRPRPEHMPRP,-0.0877
15,RRIRIRPPRLPRPRPRPSMQPRP,-0.221
16,RRIRQRPPRLPRPRPRPEANPRP,0.0119
17,RRIRGRPPRLPRPRPRPKGAPRP,1.06
18,RRIRMRPPRLPRPRPRPGQIPRP,-0.00968
19,RRIRARPPRLPRPRPRPFTPPRP,-0.0978
20,RRIRVRPPRLPRPRPRPPLAPRP,0.425
21,RRIRPRPPRLPRPRPRPQHFPRP,-0.297
22,RRIRCRPPRLPRPRPRPVILPRP,-0.799
23,RRIRARPPRLPRPRPRPWHAPRP,0.288

row,Sequence,shrunken log2 fold change
1,RRIRLRPPRLPRPRPRPIDTPRP,0.115
2,RRIRMRPPRLPRPRPRPMLMPRP,0.0323
3,RRIRTRPPRLPRPRPRPMPYPRP,-0.159
4,RRIRYRPPRLPRPRPRPVPLPRP,-0.17
5,RRIRVRPPRLPRPRPRPKDCPRP,-0.107
6,RRIRVRPPRLPRPRPRPCRVPRP,0.00617
7,RRIRFRPPRLPRPRPRPEQAPRP,-0.0421
8,RRIRMRPPRLPRPRPRPHLFPRP,-0.0118
9,RRIRVRPPRLPRPRPRPCRHPRP,0.0429
10,RRIRDRPPRLPRPRPRPWCGPRP,-0.00113
11,RRIRERPPRLPRPRPRPYHEPRP,-3.17
12,RRIRHRPPRLPRPRPRPMIEPRP,0.0253
13,RRIRVRPPRLPRPRPRPNWQPRP,0.108
14,RRIRHRPPRLPRPRPRPEKYPRP,-0.159
15,RRIRRRPPRLPRPRPRPCNIPRP,-0.373
16,RRIRQRPPRLPRPRPRPNRGPRP,-0.0689
17,RRIRFRPPRLPRPRPRPSWEPRP,-0.0476
18,RRIRVRPPRLPRPRPRPWGGPRP,0.307
19,RRIRFRPPRLPRPRPRPQCTPRP,-0.137
20,RRIRSRPPRLPRPRPRPYDPPRP,-1
21,RRIRWRPPRLPRPRPRPNWYPRP,-0.372
22,RRIRGRPPRLPRPRPRPTGHPRP,0.448
23,RRIRFRPPRLPRPRPRPDFHPRP,-0.287

row,Sequence,shrunken log2 fold change
1,RRIRVRPPRLPRPRPRPMAPPRP,0.0351
2,RRIRPRPPRLPRPRPRPCTFPRP,-0.00278
3,RRIRFRPPRLPRPRPRPLPHPRP,-0.0994
4,RRIRQRPPRLPRPRPRPHIFPRP,0.0297
5,RRIRGRPPRLPRPRPRPSSSPRP,-0.296
6,RRIRTRPPRLPRPRPRPYGCPRP,-0.00664
7,RRIRSRPPRLPRPRPRPNEIPRP,-0.12
8,RRIRERPPRLPRPRPRPEKVPRP,-0.0174
9,RRIRCRPPRLPRPRPRPIHRPRP,-0.0331
10,RRIRMRPPRLPRPRPRPPFQPRP,0.202
11,RRIRLRPPRLPRPRPRPQAKPRP,-0.0308
12,RRIRTRPPRLPRPRPRPIPCPRP,-0.0839
13,RRIRTRPPRLPRPRPRPWDNPRP,-0.0778
14,RRIRSRPPRLPRPRPRPSCDPRP,-0.444
15,RRIRMRPPRLPRPRPRPCWTPRP,-0.218
16,RRIRVRPPRLPRPRPRPDFPPRP,0.0164
17,RRIRFRPPRLPRPRPRPYYSPRP,-0.228
18,RRIRERPPRLPRPRPRPRCPPRP,0.00202
19,RRIRARPPRLPRPRPRPTSRPRP,0.119
20,RRIRFRPPRLPRPRPRPTHGPRP,-0.0666
21,RRIRGRPPRLPRPRPRPWGWPRP,1.15
22,RRIRLRPPRLPRPRPRPPNIPRP,-0.346
23,RRIRERPPRLPRPRPRPAMCPRP,-0.456

row,Sequence,shrunken log2 fold change
1,RRIRPRPPRLPRPRPRPKERPRP,0.128
2,RRIRTRPPRLPRPRPRPGITPRP,-0.104
3,RRIRPRPPRLPRPRPRPHRIPRP,-0.414
4,RRIRERPPRLPRPRPRPWWEPRP,0.0397
5,RRIRTRPPRLPRPRPRPGCHPRP,-0.136
6,RRIRDRPPRLPRPRPRPDNPPRP,-0.159
7,RRIRGRPPRLPRPRPRPPCYPRP,0.265
8,RRIRTRPPRLPRPRPRPDVFPRP,0.0603
9,RRIRKRPPRLPRPRPRPWAQPRP,0.315
10,RRIRPRPPRLPRPRPRPGNVPRP,-0.344
11,RRIRGRPPRLPRPRPRPTLNPRP,0.835
12,RRIRERPPRLPRPRPRPTGWPRP,0.0993
13,RRIRKRPPRLPRPRPRPNCSPRP,0.149
14,RRIRMRPPRLPRPRPRPALFPRP,0.356
15,RRIRVRPPRLPRPRPRPLMEPRP,-0.21
16,RRIRDRPPRLPRPRPRPICFPRP,0.227
17,RRIRHRPPRLPRPRPRPSWTPRP,-0.356
18,RRIRKRPPRLPRPRPRPRLFPRP,0.104
19,RRIRVRPPRLPRPRPRPWASPRP,0.0586
20,RRIRVRPPRLPRPRPRPMNDPRP,-0.187
21,RRIRDRPPRLPRPRPRPNGWPRP,0.612
22,RRIRGRPPRLPRPRPRPNWLPRP,0.341
